Results reported in the supplement of paper PMC9170038.

System: MS2 coat protein
Assay: apparent KD of MS2 coat protein; designed switch direction (-1 OFF switch, 1 ON switch): -1; higher = weaker reporter binding
Summary of the method: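 Designed RNA switches sharing common flanks were transcribed on Illumina chips by stalled E. coli RNA polymerase. They were titrated with SNAP-549-labelled MS2 coat protein, from 0.7 or 1.5 nM doubling to 3 µM, in Tris-HCl pH 7.5 buffer with KCl, MgCl2, BSA, DTT, tRNA and Tween-20. Titrations ran without input, with 200 uM small-molecule ligand, or with an oligonucleotide input. The apparent KD of each design is the median over its clusters, after curve-fitting of normalised cluster fluorescence.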

[1] = input ligand: microRNA oligo, concentration not stated
[2] = Eterna round: R95, input ligand: microRNA oligo, concentration not stated
[3] = Eterna round: R95, input ligand: FMN 200 uM
[4] = Eterna round: R95, input ligand: none

| Sequence | apparent KD of MS2 coat protein (input ligand: FMN 200 uM) | apparent KD of MS2 coat protein (input ligand: none) | apparent KD of MS2 coat protein [1] | apparent KD of MS2 coat protein [2] | apparent KD of MS2 coat protein [3] | apparent KD of MS2 coat protein [4] |
| --- | --- | --- | --- | --- | --- | --- |
| GGAUCUACUGAGGAUAUUACAUCACCCGACUGAUAAGAAGGCAGAACAUGAGGAUCACCCAUGUGGGUAGCCAC [Polaris5] (Eterna round: R97, puzzle: Exclusion 6) | 0.0563 µM | 0.0357 µM |  |  |  |  |
| UUUAUUAAUUAAUAUAAUAAGAUCACAUGAGGAUCACCCAUGUAGGAUAUCAGCUCGUUUAGAGCUGAGAAGGACAUAAUUAUA [ExNG3/1-B2] (Eterna round: R96, puzzle: Exclusion NG 3) | 0.135 µM | 0.0359 µM | 0.0336 µM |  |  |  |
| UUAUUAGCAGGAUAUAUCCGGGAUCACAUGAGGAUCACCCAUGUGACCGCUUGAGAUUCUAUAGAAGGGCUUUAUU [Mod of ViennaUCT 32 - Jieux - Exclusion 5] (Eterna round: R97, puzzle: Exclusion 5) | 0.0196 µM | 0.0186 µM |  |  |  |  |
| CUUUUGUGAGGAUAUCGGUAGUAAUACAAUAGUAUUACUACUGAGAAGGCACAUGAGGAUCACCCAUGUUCCUC [Ex4 344 Omei mod 9] (puzzle: Exclusion 4) |  |  |  | 0.043 µM |  |  |
| ACAAGCUUUUUCGUGGGUGACAUGAGGAUCACCCAUGUUUGCCACGUCUUGUGGGCCCGGGCCCGCGGCCCGGGCCC [-44.6, -64.9, A 13%] (Eterna round: R97, puzzle: Sensor, turn-off variant 1) | 0.0458 µM | 0.0471 µM |  |  |  |  |
| ACAUGAGGAUCACCCAUGUGCACGUAAUGGCUCAUGUAGAGUGAGGAUAUGUGUGACGAACGAGCACAGAAGGCACAAGACUGG [Deportation 13 - Jieux - Exclusion NG 3] (Eterna round: R96, puzzle: Exclusion NG 3) | 0.116 µM | 0.0974 µM | 0.0673 µM |  |  |  |
| AUGAAGUAAGGAUAUACAUGAGGAUCACCCAUGUAAAGAAAAGUAAUGGGAGUAAGAAGUAGAAGGUACGAGAA [JR_Exclu3_Sub061] (puzzle: Exclusion 3) |  |  |  | 0.0482 µM | 0.0534 µM | 0.0541 µM |
| UGAUCUAGCGGAGGAUAUACAUGAGGAUCACCCAUGUAGAUAUCAUGACCGUAGUCGUGUAUCGUGUAGAAGGCCGCUAGAUCU [JL ENG2 3.69] (Eterna round: R96, puzzle: Exclusion NG 2) |  |  | 0.0127 µM |  |  |  |
| UUGUUCCGUGUAGGAUAUUGGUCUCCCUCGGGCCGAGAAGGACAUGAGGAUCACCCAUGUAUGUUAUUAUCGCGCGUGGCGCAU [Design 91] (Eterna round: R96, puzzle: Exclusion NG 1) | 0.112 µM | 0.0379 µM | 0.0216 µM |  |  |  |
| UCCUUACAUGAGGAUCACCCAUGUCAGGAUAUCUCGGGCGGCUGAGGACCAGCCGCCCAGAGAAGGGACGAGGA [Dixeinis] (puzzle: Exclusion 1) |  |  |  | 0.0231 µM | 0.0386 µM | 0.0313 µM |
| UAUUAGCAAGUAAGAUCCCACAUGAGGAUCACCCAUGUGCUCGUCAUAUCAGGUACUGUGAGGAAACUCACGGUACG [Sensor-V1 #86] (Eterna round: R97, puzzle: Sensor, turn-off variant 1) | 0.127 µM | 0.169 µM |  |  |  |  |
| GUAUAACAUGAGGAUCACCCAUGUGAGGAUAUGCGAAUUUCAUCAAAAGAUGAAAUUUGCAGAAGGCACAGUAC [Omei Ex1 A12] (Eterna round: R97, puzzle: Exclusion 1) | 0.093 µM | 0.0663 µM |  |  |  |  |
| UUAAUUAAUUGCGCAAGAUCACAUGAGGAUCACCCAUGUAUAUAGGAUAUCAGCUCGUGUAGAGCUGAGAAGGAUAUACAGCGC [ExNG3/3-A3] (Eterna round: R96, puzzle: Exclusion NG 3) | 0.886 µM | 0.495 µM | 0.419 µM |  |  |  |
| AUUGAUGUUGAGGAUAUGCUUUUAUUUAUAAUAGCAGAAGGCGAUACAUGAGGAUCACCCAUGUUCAUGGUAGU [JR_E6_Sub095] (Eterna round: R96, puzzle: Exclusion 6) | 0.0776 µM | 0.0634 µM | 0.0523 µM |  |  |  |
| AAGAUGUGAGGAUAUCUAUUGAAGCGCGGUUCCCGGCAGAGAGAGAAGGCACAUGAGGAUCACCCAUGUAUAGC [Eternabot (L1) Solution 53] (Eterna round: R97, puzzle: Exclusion 4) | 0.0565 µM | 0.0206 µM |  |  |  |  |
| CGUUCCACAGGAUAUACAAAACGUAUCCCAGGGCUAACAGGACAUGAGGAUCACCCAUGUAGAAGGGUGGAACU [Eternabot (L1) Solution 36] (Eterna round: R97, puzzle: Exclusion 2) | 0.571 µM | 0.674 µM |  |  |  |  |
| AGCGCGUUCUAGGAUAUCCGGUGGGACACAUACGGAGAAGGAGAAACAUGAGGAUCACCCAUGUAUGGAGAUCG [Eternabot (L1) Solution 7] (Eterna round: R97, puzzle: Exclusion 6) | 0.309 µM | 0.102 µM |  |  |  |  |
| UGAGUGCUGCGAGGAUAUACAUGAGGAUCACCCAUGUUUUCGUGUGAGGCUUUGCCUCACACGAUGUAGAAGGCGCAGUACUCU [JL ENG2 1.13] (Eterna round: R96, puzzle: Exclusion NG 2) | 0.0115 µM | 0.0128 µM | 0.00816 µM |  |  |  |

| Sequence | apparent KD of MS2 coat protein (input ligand: FMN 200 uM) | apparent KD of MS2 coat protein (input ligand: none) | apparent KD of MS2 coat protein [1] | apparent KD of MS2 coat protein [2] | apparent KD of MS2 coat protein [3] | apparent KD of MS2 coat protein [4] |
| --- | --- | --- | --- | --- | --- | --- |
| UAAAGUAUAUAGGAUAUCUAGCUGGUAACAGCUAGAGAAGGAUGUACAUGAGGAUCACCCAUGUAAAUCGUGAA [Ex6/13-A2] (Eterna round: R97, puzzle: Exclusion 6) | 0.0205 µM | 0.0169 µM |  |  |  |  |
| CGGCGGGCAGGAUAUGGUAAUAAUUACAUGAGGAUCACCCAUGUAGAUAUAUGGGAAUAACCAGAAGGGCUUGUUG [-20.5, -20.3 kcal, A 32%] (Eterna round: R97, puzzle: Exclusion 5) | 0.0197 µM | 0.0287 µM |  |  |  |  |
| CUCCUCGCUUAGGAUAUGUACACUUGCACCGUGACAGAAGGAAGCACUUGAGGAUCACCCAAGUGCCAGGGUGC [Geena] (Eterna round: R97, puzzle: Exclusion 6) | 0.0144 µM | 0.0167 µM |  |  |  |  |
| ACUUAUUGAGGAUAUACAUAAAUUUACAUGAGGAUCACCCAUGUUCUUCUAUGUAUAUAUGUAGAAGGCAGAAGAA [JL-ex5-4.31 Malcolm mod] (Eterna round: R97, puzzle: Exclusion 5) | 0.027 µM | 0.0185 µM |  |  |  |  |
| GGUCUACAUGAGGAUCACCCAUGUAAGGAUAUCGUCACUGGAGCUUCGGCUCCAGUGACGAGAAGGUGCAUAAU [E1/11-A1] (Eterna round: R97, puzzle: Exclusion 1) | 0.0354 µM | 0.0272 µM |  |  |  |  |
| UACAUGAGGAUCACCCAUGUUUUAUCAUGUGUAAUAAUAAUGUAGGAUAUGUAUUAUUUAUUUUAACAGAAGGACAAUAAUAAA [JMF's solution 1] (Eterna round: R96, puzzle: Exclusion NG 3) | 0.279 µM | 0.362 µM | 0.265 µM |  |  |  |
| UCGAGUGGUUAGGAUAUCAUUGGUGCAUAUCAUUGAGAAGGAACUACAUGAGGAUCACCCAUGUGGCAGUGAUA [Abezaso] (Eterna round: R96, puzzle: Exclusion 6) | 0.152 µM | 0.0319 µM | 0.0264 µM |  |  |  |
| AGAUCACAUGAGGAUCACCCAUGUCAGGAUAUCGUCACUGGAGCUUCGGCUCCAGUGACGAGAAGGGACAUAAU [E1/2-A1] (Eterna round: R97, puzzle: Exclusion 1) | 0.161 µM | 0.554 µM |  |  |  |  |
| AAAAGGCGAGGAUAUCCGGGCACGGACAUGAGGAUCACCCAUGUGACCUCGCCCGGCGGAGGAGAAGGCGCCGAAG [Biestein] (Eterna round: R97, puzzle: Exclusion 5) | 0.368 µM | 0.158 µM |  |  |  |  |
| UGUAUCCGAGGAUAUCGCUUGAGGGACAUGAGGAUCACCCAUGUGAAGAAAAGCGUCCCGCGAGAAGGCGGACCCA [EX5 B.24] (Eterna round: R97, puzzle: Exclusion 5) | 0.189 µM | 0.0664 µM |  |  |  |  |
| CUUCUCAGAGUCAGGAUAUAGUCGAAAGGGCUAGACUAGAAGGGACAUGAGGAUCACCCAUGUAAAAUAUCAAA [Razalequ] (puzzle: Brourd's mod of Exclusion 4) |  |  |  | 0.0204 µM |  |  |
| GAAAAGGUAGGAUAUACGAAAACAAAGGGUAGAAACAAAACACAUGAGGAUCACCCAUGUAGAAGGACCAAAAG [salish99_ex2_r3_097] (Eterna round: R96, puzzle: Exclusion 2) |  |  | 0.0308 µM |  |  |  |
| AUUAUGUAAGGAUAUCUUACAUGUGACUUCGGUCACUGUUAAGAGAAGGUACAUGAGGAUCACCCAUGUAGAAC [Ex4-3: 47] (puzzle: Exclusion 4) |  |  |  | 0.0181 µM |  |  |
| CUAAUACAUCAGGAUAUCUUAGCCUAUAGCAUAAGAGAAGGGAUGACAUGAGGAUCACCCAUGUCAAAGGGUGA [eternacac ex6r4 sub20] (Eterna round: R97, puzzle: Exclusion 6) | 0.304 µM | 0.929 µM |  |  |  |  |
| AAGUAGUGUGUGAGGAUAUUGGUGGAAUGACAUAUUAAGAAGGCACAUGAGGAUCACCCAUGUGGGUUGACACG [Brourd's EX4 #19] (Eterna round: R97, puzzle: Brourd's mod of Exclusion 4) | 0.269 µM | 0.0984 µM |  |  |  |  |
| ACAUGUUAUCCAUGAUAUCACAUGAGGAUCACCCAUGUUAUGGCGAUUUUGAGGUGUAAGUUUGUUGCUCGUCUUAU [JR_STOV1_Sub059] (Eterna round: R97, puzzle: Sensor, turn-off variant 1) | 0.0545 µM | 0.0653 µM |  |  |  |  |
| CAGCCCUGAGGAUAUCCCUCCUUGUACAUGAGGAUCACCCAUGUUCUCCUCUGGGCUUUGGGAGAAGGCAGAUCUC [Megrez-6.9] (Eterna round: R97, puzzle: Exclusion 5) | 0.0411 µM | 0.0465 µM |  |  |  |  |
